In general, IC50 refers to the point on the concentration scale where inhibition reaches its midpoint.

The assay addresses Trx-6His-HRV3C-BCL6 (Thioredoxin-6His-tagged BCL6 BTB, uncleaved) (human), P41182. Briefly: AlphaScreen or HTRF; TR-FRET competition: 1 or 10 nM Trx-6His-BCL6 BTB, 300 nM BCOR-A633, 0.5 or 1 nM anti-6His-Terbium cryptate; 25 mM Hepes pH 8, 100 mM NaCl, 0.05% Tween20, 0.5 mM TCEP, 0.05% BSA; 2 h at room temperature. Background: Bead proximity is the source of the signal in Alpha formats.

RSEIISTAPSSWVVPGP (modifications not checked) [unlabelled BCOR peptide (17 residue BCOR peptide)]: the IC50 came to 8 µM.
